B1: Twister Ribozyme (parent)
chain: AACACUGCCAAUGCCGGUCCCAAGCCCGGAUAAAAGUGGAGGGGGCGG

Variants of: B1
Experiment: self-cleavage, relative activity (ratio to wild type); higher = more cleavage; co-transcriptional

Variant	self-cleavage
AACACUGCCAAUGCAGGUCCCAAGCCCGGAUAAGAGUGGAGGGGGCGG	0.422
AACACUUCCAAUGCCGGUCCCAACCCCGGAUAAAAGUGGAGGGGGCGG	0.0734
AACACUGCCAAUGCCGGUCACAAGCCCGGAUAAAAGUGGAGGGGCCGG	0.161
AACACUGCCAAUGCCGGUCCCAAUCCCGGAUAAAAGUGGAAGGGGCGG	0.0908
AACACUGCCAAUGCCGGUCCCAAGCCCGGGUAAAAGUGUAGGGGGCGG	0.191
AACACUGCAAAUGCCGGUCCCAAGCCCGGAUAAAAGCGGAGGGGGCGG	0.16
AACACUGCCAAUGCAGGUCGCAAGCCCGGAUAAAAGUGGAGGGGGCGG	0.0632
AACACUGCCAAUGCCGGUCCCAAGCCCGGAUAUUAGUGGAGGGGGCGG	0.847
AACACUGCCAAUGCCGGUCCCAAGCUCGGAUAAAAGUGGAGAGGGCGG	0.13
AACACUGCCAAUGCCGGUCCCAAGCGCGGAUAAAAGUGGCGGGGGCGG	0.113
AACACUGCCAAUGCCGGUCCGUAGCCCGGAUAAAAGUGGAGGGGGCGG	0.118
AACACUGCCAAUGCCGGUUCCAAGCCCGGAUAAAAGUGGAGGGGGGGG	0.929
AACACUGCCAAUGCCGGUCCCAAGCCCGGAUAAAAGUGGAGGGAACGG	0.906
AACACUGCCAAUGCCGGUCCCCAGCCCGGAUAAAAGUGGAGCGGGCGG	0.237
AACACUGCCAAUGCCGGUCCCACGCCCGGAUAAAGGUGGAGGGGGCGG	0.0714
AACACUGCCAAUCCCGGUCCCAAGCCCGGUUAAAAGUGGAGGGGGCGG	0.612
AACACUGCCAAUGCCGGUCCCAAGCCCGGUUAAAAGUGGAAGGGGCGG	0.621
AACACUGCCAAUGCCGGUCCCAAGCCCGGCUAAGAGUGGAGGGGGCGG	0.326
AACACUGCCAAUGCCGCUCCCAAGCCCGGAUAAUAGUGGAGGGGGCGG	0.0853
AACACUGCCAAUGCCGGUACCAAGCCCGGAUAAAACUGGAGGGGGCGG	0.0909
AACACUGCCAAUGCCGGUCCCAAGCCCGUAUACAAGUGGAGGGGGCGG	0.821
AACACCGCCAAUGCCGGUCCCAAGCCCGUAUAAAAGUGGAGGGGGCGG	0.371
AACACUGCCAAUGCCGGUCCCAAGCCCGGGUAAAAAUGGAGGGGGCGG	0.761
AAGACUGCCAAUGCCGGUCGCAAGCCCGGAUAAAAGUGGAGGGGGCGG	0.0675
AACACUGCCAAUGCCGUUCCCAAGCCCGGAUAAGAGUGGAGGGGGCGG	0.182
AACACUGCCAAUGCCGGUCCCAAGCCCGGAUUAAAGUGGAGGGGGCGU	0.977
GACACUGCCAAUGCCGUUCCCAAGCCCGGAUAAAAGUGGAGGGGGCGG	0.221

Variant	self-cleavage
AACACUGCAAAUGCCGGCCCCAAGCCCGGAUAAAAGUGGAGGGGGCGG	0.0799
AACACUGUCAAUGCCGGUCCCAAGCCCGGAUAAAACUGGAGGGGGCGG	0.106
AACAUUGCCAAUGCCGCUCCCAAGCCCGGAUAAAAGUGGAGGGGGCGG	0.0605
AACACUGCCAAUGCCGGUCCAAAGCCCGGAUAGAAGUGGAGGGGGCGG	0.0711
AACACUGCCAAUGCCGGUCCGAAGCCCGGAUAAAUGUGGAGGGGGCGG	0.0529
AACACUGCCAAUGCCGGUCCCAAGCACGGAUAAAAGUGGAGGGGGCGA	0.304
AACACUGCCGAUGCCGCUCCCAAGCCCGGAUAAAAGUGGAGGGGGCGG	0.217
AACACUGCCAAUGCCGAUCCCAAGCCCGGAUAAAAGUGCAGGGGGCGG	0.105
AACACUGCCAAUGCCGGUCCCAAGCCCGGAUAAAGGCGGAGGGGGCGG	0.056
AACACUGGCAAUGCCGGUCCCAAGCCCGGACAAAAGUGGAGGGGGCGG	0.497
AACACUGCCAAAGCCGGUCCCAAGCCCGCAUAAAAGUGGAGGGGGCGG	0.949
AACACUGCCAAUGCCGGUCCAACGCCCGGAUAAAAGUGGAGGGGGCGG	0.109
AACAAUGCCAAUGCCGGUCCCAAGCCCGGAUAAAAGAGGAGGGGGCGG	0.547
AACACUGCCAAUGCCAGUCCCAAGCCCGGAUAAAAGUGGAGGGGGUGG	0.895
AACACUGCCAAUGCCGGUCCCAAGCUCGGAUAAAAGUGGAAGGGGCGG	0.109
AACAGUGCCAAUGCCGGUCCCAAGCCCCGAUAAAAGUGGAGGGGGCGG	0.212
AACACUGCCAAUGCCGGCCCCAAGCCCGGAUAAAAGUGCAGGGGGCGG	0.108
AACACCGCCAAUGCCGGUCCCAAGCCCGGAUGAAAGUGGAGGGGGCGG	0.518
AACCCUGCCAAUGCCGGUCCCAAGCCAGGAUAAAAGUGGAGGGGGCGG	0.0944
AACACUGCCGAUGCCGGUCCCAAGCCCGGAUAAAAGUGGAGUGGGCGG	0.493
AACACUGCCAGUGCCGGUUCCAAGCCCGGAUAAAAGUGGAGGGGGCGG	0.792
AACACUGCCAAUGCCGGUCACAAGCCCGGAUAAAAGUAGAGGGGGCGG	0.0955
AACACUGCCAAUGCCGGUCCCAAGCCCGGAUAAAUCUGGAGGGGGCGG	0.592
AACACUGCCAAUGCCGGUCCCAAGUCCGGAUAAAUGUGGAGGGGGCGG	0.764
AACACUGCCAAUGCGGGUCCCAAGCCCGGAGAAAAGUGGAGGGGGCGG	0.153
AACACUGCCAAUGCCGGUCCCAAGCCCGGAUAAAAGUGGAGGAGGGGG	0.367
AACACUGCCAAUGCCGGUCCCAAUCCCGGAUAAAAGUGGAGGGGACGG	0.0796
